The target of this experiment is 2A3-D NKT TCR βL95A, on 5KC hybridoma (mouse). The experiment is described as follows: flow cytometry on cells. (Flow cytometry measures light scatter and fluorescence of single cells or particles in a stream.)

One substance from article PMC3070541 can be followed below.

The substance “mouse CD1d tetramer loaded with α-galactosylceramide (αGC) (from UniProt P11609 22-336; P01887 21-119) (complex)” returned a reduction of tetramer binding against the wild type of 10%.
